From patent publication US20060280645A1, “Method for terminal sterilization of transdermal delivery devices” (priority 2005, published 2006)

Experiment: Terminal sterilization by e-beam irradiation: BNP purity and degradation products by RP-HPLC
Type: physicochemical
Details: best performing system (Example 4)
Experimental: FIGS. 14-16 detail the major degradation pathways for BNP coated on microprojections for all conditions treated by e-beam. […] All modes of degradation are reduced for the microprojection members packaged with desiccant and pre-dried retainer rings and purged with argon.
In this example, methionine from JT Baker (Phillipsburg, N.J.) was added to the BNP formulations in the amount of 1% by weight. These coating formulations were then irradiated using either e-beam or gamma radiation at varying temperatures and under varying atmospheric conditions. FIGS. 17-20 show the purity and degradation of the samples following gamma irradiation and FIGS. 21-24 show the purity and degradation of the samples following e-beam irradiation.
Further, systems packaged with pre-dried retainer rings performed better than systems stored with desiccant when terminally sterilized by e-beam. The best performing system retained 95.1% of the BNP purity, representing only approximately a 2% drop from the initial material purity.

For BNP, the BNP purity retained was 95.1% and the “drop from the initial material purity” value was about 2%.
